Usually IC50 stands for the concentration needed to halve the response being measured. Broadly, the Kd is the concentration at which binding is half-saturated. Read a low Kd as higher affinity.

This is an account of results in the Immune Epitope Database (IEDB).

In test [1] the target is HLA-A*02:01. Kind of test: IEDB peptide-MHC binding, cellular MHC/competitive/fluorescence; ≥ and ≤ were set here for values at or beyond the usual limits of such assays. The conditions noted are these: source organism: human gammaherpesvirus 4.
In test [2] the target is HLA-A*02:01. Kind of test: IEDB peptide-MHC binding, purified MHC/competitive/fluorescence; filed as Kd, often an IC50 or EC50 that approximates it; ≥ and ≤ were set here for values at or beyond the usual limits of such assays. The conditions noted are these: source organism: human gammaherpesvirus 4.
Test [3] has as its target HLA-A*02:03. The description is as above. The conditions noted are these: source organism: human gammaherpesvirus 4.
Test [4] addresses HLA-A*02:19. The description is as above. The conditions noted are these: source organism: human gammaherpesvirus 4.
Test [5] deals with HLA-A*02:16. Described as above. The conditions noted are these: source organism: human gammaherpesvirus 4.
Test [6] deals with HLA-A*69:01. The description is as above.
Test [7] concerns the target HLA-A*02:06. Described as above.
In test [8] the target is HLA-A*02:11. The test is described as above. The conditions noted are these: source organism: human gammaherpesvirus 4.
For test [9], the target named is HLA-A*02:12. Described as above. The conditions noted are these: source organism: human gammaherpesvirus 4.
For test [10], the target named is HLA-A*26:02. Put plainly: IEDB peptide-MHC binding, purified MHC/direct/fluorescence; filed as Kd, often an IC50 or EC50 that approximates it; ≥ and ≤ were set here for values at or beyond the usual limits of such assays. The conditions noted are these: source organism: West Nile virus strain PTRoxo.
The target in test [11] is HLA-A*32:15. Put plainly: IEDB peptide-MHC binding, purified MHC/competitive/fluorescence; filed as Kd, often an IC50 or EC50 that approximates it; ≥ and ≤ were set here for values at or beyond the usual limits of such assays. The conditions noted are these: source organism: West Nile virus.
The target in test [12] is HLA-B*45:06. Described as above. The conditions noted are these: source organism: West Nile virus.
Test [13] addresses HLA-A*32:07. The description is as above. The conditions noted are these: source organism: West Nile virus.
Test [14] addresses HLA-B*15:42. Described as above. The conditions noted are these: source organism: West Nile virus.
Test [15] addresses HLA-B*83:01. The test is described as above. The conditions noted are these: source organism: West Nile virus.
Test [16] has as its target HLA-B*14:02. Kind of test: IEDB peptide-MHC binding, purified MHC/direct/fluorescence; filed as Kd, often an IC50 or EC50 that approximates it; ≥ and ≤ were set here for values at or beyond the usual limits of such assays. The conditions noted are these: source organism: Homo sapiens.
For test [17], the target named is HLA-A*02:01. The description is as above. The conditions noted are these: source organism: Mycobacterium tuberculosis.
The target in test [18] is HLA-B*27:05. The description is as above. The conditions noted are these: source organism: Mycobacterium tuberculosis.
Test [19] has as its target HLA-A*11:01. The test is described as above. The conditions noted are these: source organism: Mycobacterium tuberculosis.
For test [20], the target named is HLA-B*07:02. The description is as above. The conditions noted are these: source organism: Mycobacterium tuberculosis.
The target of test [21] is HLA-B*40:01. The test is described as above. The conditions noted are these: source organism: Mycobacterium tuberculosis.
Test [22] has as its target HLA-A*01:01. Described as above. The conditions noted are these: source organism: Mycobacterium tuberculosis.
In test [23] the target is HLA-B*57:01. The description is as above. The conditions noted are these: source organism: Mycobacterium tuberculosis.
Test [24] addresses HLA-A*69:01. The test is described as above. The conditions noted are these: source organism: Mycobacterium tuberculosis.
For test [25], the target named is HLA-B*46:01. Described as above. The conditions noted are these: source organism: Mycobacterium tuberculosis.
For test [26], the target named is HLA-B*58:01. Described as above. The conditions noted are these: source organism: Mycobacterium tuberculosis.
The target in test [27] is HLA-B*48:01. Described as above. The conditions noted are these: source organism: Mycobacterium tuberculosis.
Test [28] addresses HLA-A*31:01. The description is as above. The conditions noted are these: source organism: Mycobacterium tuberculosis.
The target of test [29] is HLA-B*18:01. Kind of test: IEDB peptide-MHC binding, purified MHC/competitive/fluorescence; filed as Kd, often an IC50 or EC50 that approximates it; ≥ and ≤ were set here for values at or beyond the usual limits of such assays. The conditions noted are these: source organism: Mycobacterium tuberculosis variant bovis BCG str. Pasteur 1173P2.
The target in test [30] is HLA-A*26:03. Described as above. The conditions noted are these: source organism: Mycobacterium tuberculosis variant bovis BCG str. Pasteur 1173P2.
The target in test [31] is HLA-B*35:01. The description is as above. The conditions noted are these: source organism: Mycobacterium tuberculosis variant bovis BCG str. Pasteur 1173P2.
For test [32], the target named is HLA-A*68:02. The test is described as above. The conditions noted are these: source organism: Mycobacterium tuberculosis variant bovis BCG str. Pasteur 1173P2.
Test [33] has as its target HLA-B*15:17. Described as above. The conditions noted are these: source organism: Mycobacterium tuberculosis variant bovis BCG str. Pasteur 1173P2.
For test [34], the target named is HLA-B*15:01. Described as above. The conditions noted are these: source organism: Mycobacterium tuberculosis variant bovis BCG str. Pasteur 1173P2.
For test [35], the target named is HLA-A*26:01. The test is described as above. The conditions noted are these: source organism: Mycobacterium tuberculosis variant bovis BCG str. Pasteur 1173P2.
Test [36] concerns the target HLA-A*01:01. The description is as above.
Test [37] has as its target HLA-A*26:02. The test is described as above. The conditions noted are these: source organism: Mycobacterium tuberculosis variant bovis BCG str. Pasteur 1173P2.
Test [38] has as its target HLA-B*51:01. Put plainly: IEDB peptide-MHC binding, purified MHC/direct/fluorescence; filed as Kd, often an IC50 or EC50 that approximates it; ≥ and ≤ were set here for values at or beyond the usual limits of such assays. The conditions noted are these: source organism: Mycobacterium tuberculosis.
The target in test [39] is HLA-B*18:01. Described as above. The conditions noted are these: source organism: Mycobacterium tuberculosis.
The target in test [40] is HLA-B*15:17. The description is as above. The conditions noted are these: source organism: Mycobacterium tuberculosis.
Test [41] deals with HLA-B*38:01. The description is as above. The conditions noted are these: source organism: Mycobacterium tuberculosis str. Haarlem.
The target of test [42] is HLA-B*15:01. The test is described as above. The conditions noted are these: source organism: Mycobacterium tuberculosis.
The target in test [43] is HLA-A*03:01. The description is as above. The conditions noted are these: source organism: Mycobacterium tuberculosis.
Where [44] appears, read: source organism: human gammaherpesvirus 4.
The mark [45] stands for this setting: source organism: Mycobacterium tuberculosis variant bovis BCG str. Pasteur 1173P2.

For the sequence CLGGLLTMV, the IC50 in [1] stood at 2.5 µM. The Kd in test [2] is 0.023 µM; in test [3], 0.00067 µM; in test [4] it was 0.0075 µM; in [5] it was at most 0.0001 µM; in test [6] (setting [44]) it was 3.17 µM; in test [7] (setting [44]), at most 0.0001 µM. In addition, the results for the Kd in test [8] and in test [9] were at most 0.0001 µM and at most 0.001 µM, respectively.
As for ETTNWLWAF, the Kd in test [10] is at most 0.001 µM; in test [11] it was 0.0251 µM; in [12] it was at least 5 µM; in test [13], 0.0263 µM; in test [14] it was at least 5 µM; in [15], at least 5 µM.
On to VSPLHRVL, for which the Kd in test [16] was 0.0896 µM. This counts as double-digit nanomolar.
The sequence LQVAHEEI had a Kd in [16] of 0.528 µM. Compared with the last sequence, the Kd is about 5.9-fold higher.
For NQIIHRDL, the dissociation constant Kd in test [16] was 0.13 µM.
Take AVFLSYIGY: the Kd in test [17] is at least 20 µM; in test [18], at least 20 µM; in test [19], 1.56 µM; in test [20], at least 20 µM; in test [21] it was at least 20 µM; in [22] it was at least 20 µM. In addition, the equilibrium dissociation constant (Kd) was at least 20 µM in test [23]; at least 20 µM in test [24]; at least 20 µM in test [25]; 17 µM in [26]; at least 20 µM in test [27]; at least 20 µM in test [28]. Besides, the Kd in test [29] was at least 20 µM; in [30], at least 20 µM; in test [31] it was 3.95 µM; in test [32], 3.04 µM; in test [33], 0.315 µM; in test [34] it was 1.84 µM. The sequence further had a dissociation constant (Kd) in test [35] of at least 20 µM.
Regarding ATADLELAY, the Kd was 0.818 µM in test [17]; at least 20 µM in test [18]; 0.0105 µM in test [19]; at least 20 µM in test [20]; at least 20 µM in test [21]; 0.0098 µM in test [26]. The Kd in test [27] is at least 20 µM; in test [28] it was at least 20 µM; in test [30], at least 20 µM; in [32], at least 20 µM; in [33], 0.0111 µM; in test [36] (setting [45]) it was 0.0227 µM. Moreover, the equilibrium dissociation constant (Kd) was at least 20 µM in test [6] (setting [45]), 2.5 µM in [7] (setting [45]), 0.13 µM in test [37] and 0.428 µM in test [35].
Consider GPAGYTAAL, for which the Kd in test [38], in test [39], in test [17], in test [18], in test [19] and in test [40] was at least 20 µM throughout. In addition, the Kd in test [21], in test [23], in [24], in [25], in test [41] and in test [26] was at least 20 µM in each case. Moreover, the Kd in test [27], in test [28], in test [42], in [43] and in test [36] (source organism: Mycobacterium tuberculosis str. Haarlem) was at least 20 µM each time.
